Consider eight molecules from patent EP4786493A1 (Nanjing Probio Biotech Co., Ltd., dated 2026).

Changes are numbered by the printed parent chain.

Sequences and labels used below:
B1: AHP32919 (antibody, V domains shown)
VH: QVQLQESGGGVVQPGGSLRLSCAASQSIGLLSTMGWYRQAAGKQRELVATITRGGSTNYGEFVKGRFTISRDNAKNTVYLQMNSLKPEDTAVYYCTADESWLGTQSYWGRGTRVTVSS
VL: QAGLTQPPSASGTPGQGVTISCSGSSSNIGSNSVNWYQQLPGTAPKLLMHSNNERSSGVPDRFSGSKSGSSASLAISGLQSEDAADYFCGAWDDSLNGYVFGTGTKLTVL
B2: AHP33029 (antibody, V domains shown)
VH: B1 VH with Q5V, E6D, V11L, P14S, S21T, R113L
VL: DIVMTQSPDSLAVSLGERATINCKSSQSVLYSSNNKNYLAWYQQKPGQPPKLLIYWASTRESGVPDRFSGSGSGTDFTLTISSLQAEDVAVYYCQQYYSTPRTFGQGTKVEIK
B3: AHP30826 (antibody, V domains shown)
VH: QVQLQQSGGGSVQAGGSLRLSCAASGTILSINAMGWYRQAPGKQRELVATITTGGNANYAHSVKGRFTISRDNAKNTVYLQMNNLKPEDTAVYYCNAEQVVVGFLQAYDVWGQGTTVTVSS
VL: DVVMTQSPLSLPVTLGQAASISCRSSQSLVHGDGNTYLNWIQQRPGQSPRRLIYKVSNRDSGVPDRFSGSGSGTDFTLKISRVEAEDVGVYYCMQGTHWPSTFGPGTKVDIK
B4: AHP29153 (antibody, V domains shown)
VH: QLQQVESGGGLVQPGGSLRLSCAASRNIGILSTMGWYRQAPGKQRELVATITRGGSTNYGEFVKGRFTISRDNAKNTVYLQMNSLKPEDTAVYYCNVDESWLGTQSYWGRGTTVTVSS
VL: QSVLTQPASVSGSPGQSITISCTGTSSDVGGYKYVSWYQQPPGKAPKLIIYEVTKRPSGVPDRFSGSKSGNTASLTVSGLQAEDEADYYCLSYAGSNNVFGTGTKLTVL
B5: AHP31548 (antibody, V domains shown)
VH: B4 VH with L2V, Q4L, V5M, E6Q
VL: QSALTQPPSASGSPGQSVTISCTGTSSDIGTYNFVSWYQQHPGKAPKLIIYEVSKRPSGVPDRFSGSKSGNTASLTVSGLQAEDEADYYCKSYPRVFGTGTKLTAL
B6: AHP32913 (antibody, V domains shown)
VH: B4 VH with L2V, Q4L, V5M, E6Q, T113Q
VL: QAVVTQEPSLTVSPGGTVTLTCGSSTGPVTSGHYPHWYQQKPGQAPKTLIFDTSHKHPWTPAQFSGSLLGGKAALTLSGAHPEDEAEYYCLLSYSGVRVFGGGTQLIIL
B7: AHP32982 (antibody, V domains shown)
VH: B4 VH with L2V, Q4L, E6Q, T112P, T113L
VL: DIVMTQSPSSVSASVGDRVTITCRASQGISSWLAWYQQKPGKAPKLLIYAASSLQSGVPSRFSGSGSGTDFTLTISSLQPEDFATYYCQQANSFPLTFGGGTKVEIK
B8: AHP33007 (antibody, V domains shown)
VH: B4 VH with L2V, Q4L, E6Q, T112P, T113L
VL: not shown

The first test deals with T1, human Claudin 18.2 expressed on cells (HEK293/human Claudin 18.2; CHO-K1/human Claudin 18.2) (human, UniProt P56856-2 1-261). Description: cell-based or functional assay.
With B1, the “CDC on CHO-K1/human Claudin 18.2 cells: Top” value (“CDC” below) was found to be 96.3%.

As for B2, the “CDC” value was determined as 96.9%.

As to B3, the “CDC” value stood at 96%.

B4: the “CDC” value amounted to 96.3%.

In the case of B5, the “CDC” value was determined as 94%.

With B6, the “CDC” value came to 93%.

With B7, the “CDC” value was determined as 95.5%.

With B8, the “CDC” value was 92.7%.

The target of the next test is T1, human Claudin 18.2 expressed on cells …. As to the kind of experiment: cell-based or functional assay. This is another data set of the same source.
As to B1, the “ADCC reporter gene assay (CHO-K1/Claudin 18.2 target cells, GS-J2C/CD16A 158V effector cells): EC50” value (from here on “ADCC reporter gene assay … EC50”) was around 0.439 nM and the “ADCC reporter gene assay (CHO-K1/Claudin 18.2 target cells, GS-J2C/CD16A 158V effector cells): Top” value (shortened to “ADCC reporter gene assay … Top”) was 199000.

B2: the “ADCC reporter gene assay … EC50” value turned out to be 3.73 nM and the “ADCC reporter gene assay … Top” value turned out to be 358000.

Turning to B3, the “ADCC reporter gene assay … EC50” value was 0.684 nM and the “ADCC reporter gene assay … Top” value was 222000.

B4: the “ADCC reporter gene assay … EC50” value stood at 0.805 nM and the “ADCC reporter gene assay … Top” value was 283000.

Consider B5, for which the “ADCC reporter gene assay … EC50” value turned out to be 2.15 nM and the “ADCC reporter gene assay … Top” value came out at 463000.

B6: the “ADCC reporter gene assay … EC50” value turned out to be 8.12 nM and the “ADCC reporter gene assay … Top” value turned out to be 486000.

In the case of B7, the “ADCC reporter gene assay … EC50” value came out at 0.379 nM and the “ADCC reporter gene assay … Top” value was 216000.

As for B8, the “ADCC reporter gene assay … EC50” value was determined as 1.84 nM and the “ADCC reporter gene assay … Top” value came to 295000.

For another test the target is unchanged. Description: flow cytometry on HEK293 cells expressing human Claudin 18.2. In general terms: Flow cytometry measures light scatter and fluorescence of single cells or particles in a stream.
A word on the EC50: it is the concentration that produces a half-maximal response. Consider B1, for which the response was half-maximal at 6.04 nM (EC50).

Consider B2, for which a half-maximal response (EC50) required 4.24 nM.

The molecule B3 yielded an EC50 of 3.54 nM.

Take B4: the EC50 turned out to be 8.15 nM.

The molecule B5 registered a concentration giving a half-maximal response (EC50) of 3.08 nM.

For B6, the concentration for a half-maximal effect (EC50) amounted to 4.16 nM.

Consider B7, for which the midpoint of the response, the EC50, lay at 5.91 nM.

B8: a half-maximal response (EC50) required 12.4 nM.

Another test deals with T2, recombinant human Claudin 18.2 protein (GenScript, Z03504) (human, UniProt P56856-2 1-261, limits assumed).
T2 construct: Bought recombinant protein
Description: SPR Biacore 8K, antibody captured via Fc, human Claudin 18.2 protein as analyte. (Surface plasmon resonance follows binding to a sensor surface in real time, without labels.)
As a reminder, the Kd is a measure of binding affinity in units of concentration. On to B1, for which the dissociation constant Kd came to 7.91 nM.

Regarding B2, the Kd is 10.2 nM.

On to B3, for which the Kd came out at 7.82 nM.

In the case of B4, the Kd is 9.96 nM.

Take B5: the Kd came to 7.31 nM.

In the case of B6, the Kd was found to be 9.44 nM.

As for B7, the equilibrium dissociation constant (Kd) worked out at 13.3 nM.

Regarding B8, the Kd was determined as 2.7 nM.

In another test the target is T2, recombinant human Claudin 18.2 protein …. As to the kind of experiment: indirect ELISA, plate coated with recombinant human Claudin 18.2, anti-human IgG Fc-HRP detection.
In the case of B1, the 50% effective concentration (EC50) worked out at 0.0788 nM.

Turning to B2, the 50% effective concentration (EC50) turned out to be 0.0746 nM.

Consider B3, for which the concentration for a half-maximal effect (EC50) turned out to be 0.0914 nM.

For B4, the EC50 was determined as 0.125 nM.

In the case of B5, the half-maximal effective concentration (EC50) was 0.074 nM.

As for B6, the EC50 worked out at 0.111 nM.

Regarding B7, the 50% effective concentration (EC50) worked out at 0.119 nM.

B8: the concentration giving a half-maximal response (EC50) came out at 0.139 nM.

The target is the same in a further test. As to the kind of experiment: competition ELISA on coated recombinant human Claudin 18.2; competitor biotinylated IMAB362 (0.72 µg/ml). (ELISA stands for enzyme-linked immunosorbent assay.)
One may read the IC50 as the point on the concentration scale where inhibition reaches its midpoint. With B1, the IC50 is 0.271 nM.

Consider B2, for which the IC50 came to 0.319 nM.

Regarding B3, the IC50 stood at 0.276 nM.

With B4, the IC50 amounted to 0.323 nM.

Regarding B5, the half-inhibitory concentration (IC50) worked out at 0.265 nM.

Regarding B6, the IC50 came out at 0.337 nM.

Turning to B7, the 50% inhibitory concentration (IC50) is 0.491 nM.

For the molecule B8, the IC50 worked out at 0.805 nM.
